These results are taken from patent publication US5677146.

Assay [1] concerns the target T1, Cathepsin G, purified at Novo Nordisk A/S using the method of Baugh and Travis.
T1 sequence (P08311 21-244, species assumed, looked up): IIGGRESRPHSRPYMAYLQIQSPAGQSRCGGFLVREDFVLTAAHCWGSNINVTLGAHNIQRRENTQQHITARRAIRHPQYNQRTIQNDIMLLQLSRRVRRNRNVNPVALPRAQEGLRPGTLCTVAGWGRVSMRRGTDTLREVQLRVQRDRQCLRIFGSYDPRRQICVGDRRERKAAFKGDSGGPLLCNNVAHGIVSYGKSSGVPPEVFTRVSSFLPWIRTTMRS

In assay [2] the target is Chymotrypsin (2.5 nM), Novo Nordisk A/S.
Assay [3] has as its target Leukocyte Elastase, purified at Novo Nordisk A/S using the method of Baugh and Travis.
The target of assay [4] is Trypsin (8 nM), Novo Nordisk A/S, Bagsvaerd, Denmark.
Assay [5] concerns the target Urokinase (5 nM), Serono, Freigung, Germany.
Assay [6] concerns the target glandular kallikrein (1 U/ml), Sigma, St Louis, MO.
In assay [7] the target is human Factor XIIa (30 nM) (human) (UniProt P00748).
Assay [8] deals with human Factor XIa (1 nM) (human) (UniProt P03951).
For assay [9], the target named is human Factor Xa (3 nM) (human) (UniProt P00742).
Assay [10] has as its target plasma kallikrein (3 nM), Kabi.
In assay [11] the target is recombinant human Factor VIIa (300 nM), Novo Nordisk A/S (human) (UniProt P08709).
Assay [12] deals with recombinant human activated protein C (5 nM), Novo Nordisk A/S (human) (UniProt P04070).

In general, % Inhibition refers to the percentage by which the read-out fell short of the control.

Consider “APPH Kunitz-type inhibitor domain as tested in Table 3”, for which the % Inhibition in assay [1] stood at 0%; in assay [2], 61%; in assay [3], 4%; with Plasmin (10 nM), Kabi it was 77%; in assay [4], 99.6%; in assay [5] it was 2%. The % Inhibition amounted to 97% in assay [6]; 6% in [7]; 99.8% in assay [8]; 0% in [9]; 69% in assay [10]; 15% in [11]. The % Inhibition in [12] was 0%.
